Experimental data: US20250179187A1, “ANTI PD-L2 ANTIBODY” (REJUVERON SENESCENCE THERAPEUTICS AG, priority 2022, published 2025)
Like-named read-outs stand apart in the source and are kept apart here.

Legend:
[1] = target: human PD-L2 on CHO-K1 cells over-expressing hPDL2-GFP (human) (UniProt Q9BQ51); assay: flow cytometry on CHO-K1 cells expressing hPD-L2, median fluorescence
[2] = target: human PD-L2 on CHO-K1 cells over-expressing hPDL2-GFP (human) (UniProt Q9BQ51); assay: flow cytometry blocking assay: antibody titrated against recombinant hPD-1 (constant 15 micrograms/mL) binding to CHO-K1 cells expressing hPD-L2; signal falls with the antibody; column head on the sheet is EC50
[3] = target: human PD-L2 on CHO-K1 cells of the Promega PD-1/PD-L2 blockade bioassay (human) (UniProt Q9BQ51)
Chain of human PD-L2 on CHO-K1 cells of the Promega PD-1/PD-L2 blockade bioassay (human) (Q9BQ51 20-273): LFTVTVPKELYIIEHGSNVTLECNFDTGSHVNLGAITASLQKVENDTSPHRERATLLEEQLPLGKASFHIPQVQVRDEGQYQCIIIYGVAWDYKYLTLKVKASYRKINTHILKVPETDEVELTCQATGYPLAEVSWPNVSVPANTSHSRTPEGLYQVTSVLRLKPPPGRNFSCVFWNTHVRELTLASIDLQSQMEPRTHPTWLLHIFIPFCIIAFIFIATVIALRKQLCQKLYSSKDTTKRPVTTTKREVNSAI

[4] = target: human PD-L2 on CHO-K1 cells over-expressing hPDL2-GFP (human) (UniProt Q9BQ51); assay: binding to cellular PDL2 (FIG. 1A by the text; flow cytometry on CHO-K1 cells expressing hPD-L2)
[5] = target: human PD-L2 on CHO-K1 cells of the Promega PD-1/PD-L2 blockade bioassay (human) (UniProt Q9BQ51); remark: listed apart in the source
[6] = target: mouse PD-L2 on CHO-K1 cells over-expressing mPD-L2 GFP (mouse) (UniProt Q9WUL5); assay: flow cytometry on CHO-K1 cells overexpressing mPD-L2, mean fluorescence
Chain of mouse PD-L2 on CHO-K1 cells over-expressing mPD-L2 GFP (mouse) (Q9WUL5 20-247): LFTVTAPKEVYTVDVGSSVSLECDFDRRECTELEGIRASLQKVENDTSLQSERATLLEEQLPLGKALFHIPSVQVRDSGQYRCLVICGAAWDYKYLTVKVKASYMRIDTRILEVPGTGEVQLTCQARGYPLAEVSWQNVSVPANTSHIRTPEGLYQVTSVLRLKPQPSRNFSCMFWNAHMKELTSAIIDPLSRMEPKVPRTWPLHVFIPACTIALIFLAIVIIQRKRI

Chain of human PD-L2 on CHO-K1 cells over-expressing hPDL2-GFP (human) (Q9BQ51 20-273): as the sequence (Q9BQ51 20-273) above

Row | EC50 [1] [nM] | EC50 [2] [nM] | EC50 (PD-1/PD-L2 blockade reporter assay, luminescence) [3] [nM] | EC50 [4] [nM] | EC50 (PD-1/PD-L2 blockade reporter assay, luminescence) [5] [nM] | EC50 [6] [nM] | Substance
1 | 1.18 | 1.14 | 1.78 | 0.7 | – | – | 24F.10C12 (commercially available anti-PD-L2 monoclonal antibody)
2 | 1.65 | 2.99 | 1.71 | 0.618 | 1.32 | – | MIH-18 (commercially available anti-PD-L2 monoclonal antibody)
3 | – | – | – | – | – | 0.64 | TY25 (antibody)
